# Reference: the DeepSol protein solubility set
# Assay: soluble on expression in E. coli; label from the status in PepcDB or PDB records
row,Sequence,soluble on expression in E. coli
1,MLSALLIRNIRNASKLASVAGPNSDRIVNVKWSDGKTGVFPLIWLRDTSPDPSTYTISPAMTARKLTMLEFDVEQNARKLWIDEDANCLKIEWESGVLSEFPSEWLKIRNPSDQEARRRRRKVYLFPEQTWGKAEIEGKLKKFSHEEFMKNEQVVHDFLQAVCIDGIAVLKGAPQGVRGAVEAIGDRIGMIKRTHFGLVFEVSLKADASNMAYASNGGLPFHTDFPSLSHPPQLQMLHMLQSAEEGGHSLFVDGFHVAEQLRVEKPEIFKILTTQSMEYIEEGYDVHEINGKTIRFDYDMCARHKVIRLNDDGKVNKIQFGNAMRSWFYDCEPSKVQDVYRAMKTFTEYCYQPRNMLKFRLEDGDTVLWANQRLLHTRDGFRNAPEKARTLTGCYFDWDIVKSRVRFLRDKLSLEQNQPSA,not soluble
2,MTNMRQVLKTDRLVLEPQSMARFDQWFAMERQRDEAGHRDLTEDQAWLRLCARQGMWDAYACGFYYLLDPVSGEMRGEAGFQFRRRGFGPGFDNHPEAAWAVASAHQGRGLAAEAMQALLAHHDRSSGRQRVVALIARSNLPSLRLAERLGFRGYSDVAFDGAAHLLLERAG,soluble
3,MGSDKIHHHHHHMVLGGPMSLNRYFTGGLLCLLGCNPANAQTATIVLSATLLPACEAGSVGSGGAITFGTLDFGQYASLNNAISATSQQGAGSIRVRCVSGQTYAITLDGGLYGSVATRRMANIANTALTLTYNLYSDRPGGIVWDNTTGVAATGNGNDQWYPIYGLVPAQTTPVAGTYRDTVNVTISW,not soluble
4,MGHHHHHHSHMGKGTFVYRTTITSPHEEVWAFFSSPTNLQTLTKIPKVVLDSTSETTQGSEIEMKLFVLGIPFQWKAYIEAYNPPFSFTDVAIKMPFPIVYWRHTHRFTTEGERTVMIDEIQYEIKMANKLVIFFLRRMFRARESALHRYFQS,soluble
5,MNVSHISAVSYYFARYIQEVLEVPVGIVVSTWGGSKIEAWMSRESIKPFSSIDLSILDNDAEVKNPTATPCVLYNGKIAPLTNFAVRGFLWYQGESNRDNADLYQSLMPAFVADLRAKWGRGELPFYFVQIAPFDYEGADGTSAARLREVQLQNMKDIPNSGMVTTMDVGHPVFIHPVDKETVGNRLAYWALAQTYGMKGFGYAPPVYKSMEIQENKIYINFYNAQRGLSPMWTSLKGFEIAGEDKVFYPAFAEIETTTARLAVSSDKVSHPVAVRYAYKNYVEASIFSIHGIPAAPFRTDNWLEHHHHHH,not soluble
6,GGVDSHSHIAGAKVNTGRTLRPEDSKKDLFSKEGLRQGSGFSIPSTFKTGYQYSGMGYTTVIEAAMPPLVARHTHEEFMDLPQIDKAAMPLFGNSWMVLEYLKNGDLSMCAAYVAWLLKVTKGYAIKIVNPGGTEAWGWGKNVHGLDDEVPYFGITPREIVTGLAKVNEMLGLPHSIHVHPNNLGHPGNWETTIDTMDCVKDIKAKPKFGDRDTVYYNTHLQFHSYGGTSWKDCVSKGVETADYVNKNKHVMIDVGQVTLDETTTMTADGPMEYDLHMTNGLKWANCDVELETGSGVVPFIYSPKGPVYSLQWAIGLDIFLYTQPEKLILTTDHPNAGPFVRYPRVIAWLLSKEYRNDWIQNRVHKWAAEKSHITETDREYSMYEIAQITRANSSKVLGLSGDRGHLGAGAKADISIYDIDPEEKSGKKIEKAFLEAAYVLKDGEIVVKNG,not soluble
7,MTPRIIVTDMDGTLLNSEHEIPARFWPLLDEMHEQGIVFAPASGRQLYTLLDQFAQAGKDLSVIAENGTVVYHEGEIISVTTIDPEVAHRVIRTMAHSDLDWGVVVCRVDGAFIARGDVEFLTETVRYYAKLDVVDDLHSVVNDQVIKLAIYSFPDAETVAAPALAESVGDHTLAISGAHWIDIMSPHANKGVALQQLADNLGVPIEHTAAFGDYLNDYELLHTAGTAYAMSNAHPDIKDIADHVVGSNDEESVLTTIHSLLTAAK,not soluble
8,MAHHHHHHMHDIGGAELVVAVHQPAAASHGQPFCHEHGKAKTESAGHNLQHAAAIHRNVPKHTRALVVFVARRTPQAVLYGEHGAAADTEVRRKSVHHVRLRPDNAVVHVEHTGQVRTEAALHEDSRARFPATQQRRARHDKPRRQKPDAVQNKRGAVPESRTARGRQHVLRPANRRAQR,soluble
